Target: phospho His-cSrcKD-K295M/Y416F (human)
Test: BLI

| Substance | Kd | kon |
| --- | --- | --- |
| rPTPεD1-C335S (D1 domain of receptor protein tyrosine phosphatase epsilon, substrate-trapping mutant) (domain or fragment) | 34 µM | 998 M⁻¹ s⁻¹ |
| rPTPεD1-C335S/R220E (domain or fragment) | 257 µM | 128 M⁻¹ s⁻¹ |

Reference: doi:10.1101/2021.01.13.426511
